# Test results published in patent US20220125770A1, “COMBINATION THERAPY OF ALK-POSITIVE NEOPLASIA” (Academisch Medisch Centrum, priority 2019, published 2022).
# B1: TRAIL: TNF-related apoptosis-inducing ligand; recombinant soluble human TRAIL (Peprotech; His-tagged for in vivo); also doxycycline-induced transgene in SK-N-AS-TRAIL cells (protein, UniProt P50591 39-281, looked up)
# extracellular domain: TNELKQMQDKYSKSGIACFLKEDDSYWDPNDEESMNSPCWQVKWQLRQLVRKMILRTSEETISTVQEKQQNISPLVRERGPQRVAAHITGTRGRSNTLSSPNSKNEKALGRKINSWESSRSGHSFLSNLHLRNGELVIHEKGFYYIYSQTYFRFQEEIKENTKNDKQMVQYIYKYTSYPDPILLMKSARNSCWSKDAEYGLYSIYQGGIFELKENDRIFVSVTNEHLIDMDHEASFFGAFLVG
# modifications: extracellular domain His tag
# notes: TNF-related apoptosis-inducing ligand; recombinant soluble human TRAIL (Peprotech; His-tagged for in vivo); also doxycycline-induced transgene in SK-N-AS-TRAIL cells
# Assays:
# [1] = test system: ADRN-type neuroblastoma cells; assay: Cell viability (MTT) assay, ADRN-type cells of isogenic cell line pairs; assay type: cell-based, human
# Protocol: Cells were plated in 96-well plates, one day before the addition of Lorlatinib (HY-12215, MedChemExpress) and/or TRAIL (Peprotech) to the culture medium. Seeding densities were optimized for each cell line so that the control, non-treated cells would reach 70-80% confluence by the end of the experiment. […] Metabolic activity was measured by 3-(4,5-dimethylthiazol-2-yl)-2,5-diphenyltetrazolium bromide (MTT) assay, according to the manufacturer's instructions with minor modifications. Sextuple or triplicate measurements were used for each experimental condition. Two-sided t-tests assuming equal variance were used to determine significance. Experiments were repeated at least twice.
# [2] = test system: MES-type neuroblastoma cells; assay: Cell viability (MTT) assay, MES-type cells of isogenic cell line pairs; assay type: cell-based, human
# Protocol: […] Seeding densities were optimized for each cell line so that the control, non-treated cells would reach 70-80% confluence by the end of the experiment. […] Metabolic activity was measured by 3-(4,5-dimethylthiazol-2-yl)-2,5-diphenyltetrazolium bromide (MTT) assay, according to the manufacturer's instructions with minor modifications. Sextuple or triplicate measurements were used for each experimental condition. Two-sided t-tests assuming equal variance were used to determine significance. Experiments were repeated at least twice.
# SH-EP2 cells (MES-type) = assay: 3D spheroid co-culture of SK-N-AS-TRAIL cells with SH-EP2-GFP cells; assay type: cell-based, human; conditions: doxycycline-induced TRAIL expression, 48 hours, 3D model
# Protocol: (§1) Spheroid assays were performed as described^28. A suspension of 10000 cells of 3:1 SKNAS-TRAIL:SH-EP2-GFP or 3:1 SKNAS-TRAIL:IMR32-GFP was added in triplicate to 96 well round bottom suspension plates. After 48 hours incubation with 0 or 300 ng/ml doxycycline bright-field and fluorescent images of the 3D cultures were taken.
# [3] = test system: SK-N-SH (ALK-F1174L) and NBL-W (ALK-R1275L) cell lines; assay: Cell viability (MTT) assay, cell lines with heterogeneous MES and ADRN composition; assay type: cell-based, human; conditions: Lorlatinib-only or TRAIL-only (100 ng/ml), 120 hours
# Protocol: Seeding densities were optimized for each cell line so that the control, non-treated cells would reach 70-80% confluence by the end of the experiment. […] Metabolic activity was measured by 3-(4,5-dimethylthiazol-2-yl)-2,5-diphenyltetrazolium bromide (MTT) assay, according to the manufacturer's instructions with minor modifications. Sextuple or triplicate measurements were used for each experimental condition. Two-sided t-tests assuming equal variance were used to determine significance. Experiments were repeated at least twice.
# [4] = test system: mixed culture of SH-SY5Y-GFP (ADRN-type) and SH-EP2-RFP (MES-type) cells; assay: Flow cytometry of mixed cultures of SH-EP2-RFP and SH-SY5Y-GFP cells; assay type: cell-based, human; conditions: 120 hours, relative to DMSO control
# Protocol: GFP and RFP labelled cells were plated at given densities (see Figure description), collected by trypsin treatment, washed twice with FACS buffer and analysed using flow cytometer (BD biosciences) and BD Accuri C6 software.
# SK-N-AS-TRAIL xenografts = assay: SK-N-AS-TRAIL xenograft tumour growth; assay type: in vivo, NMRI-Foxn1nu/nu mice; conditions: TRAIL induced by doxycycline, established tumours 200 mm^3, five-week doxycycline stimulation
# Protocol: For the SK-N-AS-TRAIL xenograft experiments, 1×10^6 cells were suspended in 200 μl of a 50% Matrigel solution in PBS and subcutaneously injected in NMRI-Foxn1nu/nu mice. After tumour outgrowth to around 200-250 mm^3, mice were randomized to control or treatment groups. The DOX group was provided drinking water with 200 μg/ml doxycycline. DOX-containing water was refreshed weekly. Control mice received regular drinking water ad lib. Mice were screened regularly to follow tumour formation and were sacrificed before tumour reached 1500 mm^3. All animal experiments were conducted under the institutional guidelines and according to the law and approved in DAG155 by the AMC animal ethics committee.
# IMR32 cells (ADRN-type) = assay: 3D spheroid co-culture of SK-N-AS-TRAIL cells with IMR32-GFP cells; assay type: cell-based, human; conditions: doxycycline-induced TRAIL expression, 48 hours, 3D model
# Protocol: as §1
# SK-N-AS-TRAIL cells = assay: Apoptosis of SK-N-AS-TRAIL cells after doxycycline-induced TRAIL expression in vitro; assay type: cell-based, human; conditions: doxycycline-induced membrane TRAIL expression, 300 ng/ml doxycycline
# Protocol: The SK-N-AS cell line with inducible TRAIL expression was generated by cloning human TRAIL from pUNO1-hTRAILa vector (InvivoGen) into the lentiviral pINDUCER (pIND) system (Invitrogen). Expression of the TRAIL transgene was induced by the addition of doxycycline to the culture medium at a final concentration of 300 ng/ml. SH-SY5Y-GFP, IMR-GFP and SH-EP2-GFP were generated by lentiviral (pLenti, Invitrogen) transduction of turboGFP (SHC003, Sigma) and SH-EP2-RFP by lentiviral (pLenti, invitrogen) transduction of near-infrared fluorescent protein NirFP (Evrogen). […]
# To determine the effect of doxycycline-induced TRAIL expression on SK-N-AS cells, 150.000 SK-N-AS-TRAIL cells were seeded in triplicate in 6 well/plates in 2 ml medium supplemented with or without 300 ng/ml doxycycline. Cell number was determined using a coulter counter (Beckman) at every 3rd or 4th day and cells were reseeded at similar cell number as at the start until the end of the experiment. The proliferation factor was defined as the ratio of the cells counted and the cells plated.
# Sub-G1 fractions were determined after 72 hours treatment with 300 ng/ml doxycycline. […] After 1 hour incubation, DNA content of the nuclei was analysed using a Accuri C6 flow cytometer (BD biosciences). The cell cycle distribution and apoptotic sub G1 fraction was determined using BD Accuri C6 software.
# SH-SY5Y xenografts = assay: SH-SY5Y xenograft tumour growth; assay type: in vivo, NMRI-Foxn1nu/nu mice; conditions: TRAIL 150 μg/day I.P. 4 weeks; Lorlatinib 5 mg/kg twice a day oral 6 weeks; or both
# Protocol: For tumour growth assays, 5×10^6 SH-SY5Y cells were suspended in 200 μl of a 50% Matrigel (BD, 354234) solution in PBS and subcutaneously injected in NMRI-Foxn1nu/nu mice (NKI; Janvier). After tumour outgrowth to around 200-250 mm^3, mice were randomized to control or treatment groups. The control group received 150 μl PBS daily intraperitoneally (I.P.) for 4 weeks (day 1-day 28). The TRAIL group received 150 μg/day through I.P. for 4 weeks (day 1-day 28). The Lorlatinib group received 5 mg/kg twice a day through oral gavage for 6 weeks (day 1-day 42) and 4 weeks (day 29-day 56) of PBS (150 μl/day I.P.). The combination group received Lorlatinib twice a day for 6 weeks (day 1-day 42) and 4 weeks TRAIL (day 29-day 56). Tumour size was measured three times a week. Mice were sacrificed at the humane endpoint (tumor size >1500 mm^3), the tumours were isolated and divided in two parts. One tumour piece was fresh frozen in liquid nitrogen and RNA was isolated using Trizol reagent. The other tumour piece was fixed in 4% (w/v) buffered formaldehyde (Klinipath) and embedded in paraffin for histological analyses. In vivo experiments were conducted at the NKI therapeutical intervention unit after ethical approval from the animal experiments committee of the NKI was obtained (AvD:30100 2015 407 appendix 1; WP8156).
Molecule,"Sensitivity to Alectinib (cell survival) ([1]; isogenic pair with mutant ALK, ADRN-type cells, 120 hours)","Sensitivity to Alectinib (cell survival) ([2]; isogenic pair with mutant ALK, MES-type cells, 120 hours)",Killing of co-cultured MES-type SH-EP2 cells (SH-EP2 cells (MES-type)),Cell killing by single-agent treatment [3],Effect on ADRN population (SH-SY5Y-GFP) ([4]; Lorlatinib 5 μM or TRAIL 100 ng/ml),Effect on MES population (SH-EP2-RFP) ([4]; TRAIL 100 ng/ml),Tumour response of established tumours (SK-N-AS-TRAIL xenografts),"Sensitivity to TRAIL (cell viability) ([1]; four isogenic pairs, ADRN cells, 72 hours of TRAIL treatment)",Killing of co-cultured ADRN-type IMR32 cells (IMR32 cells (ADRN-type)),"Sensitivity to TRAIL (cell viability) ([2]; four isogenic pairs, MES cells, 72 hours of TRAIL treatment)",Apoptosis of SK-N-AS-TRAIL cells (SK-N-AS-TRAIL cells),Tumour growth response during treatment (SH-SY5Y xenografts)
"CCc1cc2c(cc1N1CCC(N3CCOCC3)CC1)C(C)(C)c1[nH]c3cc(C#N)ccc3c1C2=O [Alectinib, reference compound]",preferential killing,resistance,,,,,,,,,,
B1,,,killed,partly killed,reduction of the ADRN population,strongly reduced,complete regression,unaffected,not,efficiently killed,apoptosis of a large proportion of the cells,did not inhibit tumour growth
